Molecular target: RNA polymerase II;RECQL5 1-620 D157A (human;human, UniProt P24928;P30876;P19387;O15514;P19388;P61218;P62487;P52434;P36954;P62875;P52435;P53 …, |D157A)
Assay: cryo-EM

RNA polymerase II;RECQL5 1-620 D157A, sequence (O94762 1-620 D157A, one chain of several): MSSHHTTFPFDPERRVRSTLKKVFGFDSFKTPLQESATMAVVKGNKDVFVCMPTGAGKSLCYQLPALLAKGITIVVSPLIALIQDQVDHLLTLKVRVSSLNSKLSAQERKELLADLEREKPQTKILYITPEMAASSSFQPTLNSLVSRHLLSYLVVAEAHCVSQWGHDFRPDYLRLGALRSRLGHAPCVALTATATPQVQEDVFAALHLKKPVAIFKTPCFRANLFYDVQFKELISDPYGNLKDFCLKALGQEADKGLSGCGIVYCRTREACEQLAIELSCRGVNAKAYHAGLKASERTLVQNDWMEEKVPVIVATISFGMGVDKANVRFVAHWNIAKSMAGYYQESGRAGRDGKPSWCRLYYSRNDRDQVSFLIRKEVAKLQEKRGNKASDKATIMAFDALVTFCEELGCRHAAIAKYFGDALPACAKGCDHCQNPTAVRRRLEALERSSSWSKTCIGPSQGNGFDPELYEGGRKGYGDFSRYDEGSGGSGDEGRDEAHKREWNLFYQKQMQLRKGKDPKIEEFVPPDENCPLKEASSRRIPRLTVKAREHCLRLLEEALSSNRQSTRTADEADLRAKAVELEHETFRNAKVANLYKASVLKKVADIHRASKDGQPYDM

B1: artificial transcription bubble (template DNA, nontemplate DNA, RNA) (mixed)
DNA 1: CTCAAGTACTTACGCCTGGTCATTACTA
DNA 2: TAGTAAACTAGTATTGAAAGTACTTGAGCTTAGACAGCATGTC
RNA: UAUAUGCAUAAAGACCAGGC
  binding result: binds

From publication PMC3702667
